Common to all, as to test: SPR, KD relative to WT C2;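 also: biacore SPR at 37 °C, anti-C2 mAbs captured on anti-human IgG chips with alanine or serine point mutants of C2 as analyte, KD from 1:1 fit compared with wild-type C2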
A general note: In SPR one partner is held on a chip, and binding of the other changes the refractive index at the surface.

One test addresses T1, human C2 S456A (human, UniProt P06681 21-752).
T1 sequence: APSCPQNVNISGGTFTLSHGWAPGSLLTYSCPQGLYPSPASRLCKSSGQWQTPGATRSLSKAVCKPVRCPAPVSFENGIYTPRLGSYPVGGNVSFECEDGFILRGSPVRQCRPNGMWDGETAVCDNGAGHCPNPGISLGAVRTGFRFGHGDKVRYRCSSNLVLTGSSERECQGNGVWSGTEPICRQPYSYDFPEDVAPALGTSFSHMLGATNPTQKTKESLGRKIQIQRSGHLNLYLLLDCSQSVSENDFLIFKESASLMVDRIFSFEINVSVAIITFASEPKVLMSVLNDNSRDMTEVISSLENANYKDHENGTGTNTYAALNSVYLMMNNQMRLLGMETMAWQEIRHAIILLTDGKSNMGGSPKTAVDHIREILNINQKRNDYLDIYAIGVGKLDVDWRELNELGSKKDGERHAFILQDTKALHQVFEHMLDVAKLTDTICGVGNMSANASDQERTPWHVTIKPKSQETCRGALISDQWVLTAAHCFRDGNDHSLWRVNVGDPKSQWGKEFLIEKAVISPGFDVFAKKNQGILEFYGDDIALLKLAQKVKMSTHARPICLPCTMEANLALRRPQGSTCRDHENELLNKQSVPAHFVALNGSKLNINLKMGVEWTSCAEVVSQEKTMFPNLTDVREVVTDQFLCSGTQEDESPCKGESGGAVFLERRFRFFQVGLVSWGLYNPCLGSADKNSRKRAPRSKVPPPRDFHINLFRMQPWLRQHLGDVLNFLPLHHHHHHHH

The next test concerns the target T2, human C2 E433A (human, UniProt P06681 21-752).
T2 sequence: T1 sequence with E413A, A436S

Another test concerns the target T3, human C2 M316A (human, UniProt P06681 21-752).
T3 sequence: T1 sequence with M296A, A436S

For the next test, the target named is T4, human C2 I272A (human, UniProt P06681 21-752).
T4 sequence: T1 sequence with I252A, A436S

Where a chain is given by its changes, count along the chain named.

B1: RF16-242 (antibody, human IgG4 S228P, lambda, V domains shown)
VH: EVQLLQSGAEVKKPGESLKISCKGSGYSFTSYWIGWVRQMPGKGLEWMGIIYPGDSDTRYSPSFQGQVTISADKSISTAYLQWSSLKASDTAMYYCARRGHYGDYFDYWGQGTLVTVSS
VL: SYELTQPPSVSVSPGQTARITCSGDALPKKYAYWYHQKSGQAPVLVIYEDRRRPSEIPERFSGSSSGTMATLTITGAQVEDEGVYFCYSRDRAGNQRVFGGGTQLTVLG
notes: pH-dependent anti-C2 antibody from a phage display library
Consider B1, for which the Fold diff with human C2 S456A turned out to be 9 fold; with human C2 E433A, 0 fold; with human C2 M316A, 1 fold; in the test with human C2 I272A it was 1 fold.

For the origin of these results see patent US20220332804A1 (CSL INNOVATION, published 2022).
